In paper PMC4922666, “L-Tryptophan Production in Escherichia coli Improved by Weakening the Pta-AckA Pathway” (PLoS ONE, 2016):

Substrate: CC(=O)SCCNC(=O)CCNC(=O)[C@H](O)C(C)(C)COP(=O)(O)OP(=O)(O)OC[C@H]1O[C@@H](n2cnc3c(N)ncnc32)[C@H](O)[C@@H]1OP(=O)(O)O
Experiment: initial rates, Michaelis-Menten nonlinear regression
Type: biochemical, Escherichia coli
Conditions: 100 mM phosphate buffer pH 7.4, 25°C, acetyl-CoA 20-400 μmol/L
Text: initial rates, Michaelis-Menten nonlinear regression on Pta (phosphate acetyltransferase; EC 2.3.1.8)

[1] = natural variant Pta1 from E. coli CCTCC M 2016009

Protein | Km [µM] | kcat [s⁻¹] | kcat/Km [M⁻¹ s⁻¹] | Km [1] [µM] | kcat [1] [s⁻¹] | kcat/Km [1] [M⁻¹ s⁻¹]
Pta (phosphate acetyltransferase; EC 2.3.1.8) (Escherichia coli K-12) (protein, full length, untagged by primers (NdeI/HindIII in pET24a, native stop codon), expressed in E. coli BL21(DE3), DEAE-Sepharose purified, about 77 kDa; variant Pta1 (P69L) is natural in E. coli CCTCC M 2016009) SRIIMLIPTGTSVGLTSVSLGVIRAMERKGVRLSVFKPIAQPRTGGDAPDQTTTIVRANSSTTTAAEPLKMSYVEGLLSSNQKDVLMEEIVANYHANTKDAEVVLVEGLVPTRKHQFAQSLNYEIAKTLNAEIVFVMSQGTDTPEQLKERIELTRNSFGGAKNTNITGVIVNKLNAPVDEQGRTRPDLSEIFDDSSKAKVNNVDPAKLQESSPLPVLGAVPWSFDLIATRAIDMARHLNATIINEGDINTRRVKSVTFCARSIPHMLEHFRAGSLLVTSADRPDVLVAACLAAMNGVEIGALLLTGGYEMDARISKLCERAFATGLPVFMVNTNTWQTSLSLQSFNLEVPVDDHERIEKVQEYVANYINADWIESLTATSERSRRLSPPAFRYQLTELARKAGKRIVLPEGDEPRTVKAAAICAERGIATCVLLGNPAEINRVAASQGVELGAGIEIVDPEVVRESYVGRLVELRKNKGMTETVAREQLEDNVVLGTLMLEQDEVDGLVSGAVHTTANTIRPPLQLIKTAPGSSLVSSVFFMLLPEQVYVYGDCAINPDPTAEQLAEIAIQSADSAAAFGIEPRVAMLSYSTGTSGAGSDVEKVREATRLAQEKRPDLMIDGPLQYDAAVMADVAKSKAPNSPVAGRATVFIFPDLNTGNTTYKAVQRSADLISIGPMLQGMRKPVNDLSRGALVDDIVYTIALTAIQSAQQQ | 89 ± 6.3 | 2380 ± 120 | 2.7e+07 ± 3.6e+06 |  |  | 
Pta (phosphate acetyltransferase; EC 2.3.1.8) (Escherichia coli K-12; P69L) (protein, full length, untagged by primers (NdeI/HindIII in pET24a, native stop codon), expressed in E. coli BL21(DE3), DEAE-Sepharose purified, about 77 kDa; variant Pta1 (P69L) is natural in E. coli CCTCC M 2016009) SRIIMLIPTGTSVGLTSVSLGVIRAMERKGVRLSVFKPIAQPRTGGDAPDQTTTIVRANSSTTTAAELLKMSYVEGLLSSNQKDVLMEEIVANYHANTKDAEVVLVEGLVPTRKHQFAQSLNYEIAKTLNAEIVFVMSQGTDTPEQLKERIELTRNSFGGAKNTNITGVIVNKLNAPVDEQGRTRPDLSEIFDDSSKAKVNNVDPAKLQESSPLPVLGAVPWSFDLIATRAIDMARHLNATIINEGDINTRRVKSVTFCARSIPHMLEHFRAGSLLVTSADRPDVLVAACLAAMNGVEIGALLLTGGYEMDARISKLCERAFATGLPVFMVNTNTWQTSLSLQSFNLEVPVDDHERIEKVQEYVANYINADWIESLTATSERSRRLSPPAFRYQLTELARKAGKRIVLPEGDEPRTVKAAAICAERGIATCVLLGNPAEINRVAASQGVELGAGIEIVDPEVVRESYVGRLVELRKNKGMTETVAREQLEDNVVLGTLMLEQDEVDGLVSGAVHTTANTIRPPLQLIKTAPGSSLVSSVFFMLLPEQVYVYGDCAINPDPTAEQLAEIAIQSADSAAAFGIEPRVAMLSYSTGTSGAGSDVEKVREATRLAQEKRPDLMIDGPLQYDAAVMADVAKSKAPNSPVAGRATVFIFPDLNTGNTTYKAVQRSADLISIGPMLQGMRKPVNDLSRGALVDDIVYTIALTAIQSAQQQ |  |  |  | 260 ± 13 | 1480 ± 74 | 5.7e+06 ± 500000
